Measured values taken from patent US20140294814A1 (SAMSUNG ELECTRONICS, published 2014).
Changes are numbered by the printed parent chain. Names and notes keep the numbering of the source.

B1: clone L3E (Fab, V domains shown)
VH: EVQLVESGGGLVQPGGSLRLSCAASGFTFTDYYISWVRQAPGKGLEWVGFIRNKANGYTTEYSASVKGRFTISRDDSKNSLYLQMNSLKTEDTAVYYCARDNWFAYWGQGTLVTVSS
VL: DIVMTQSPLSLPVTPGEPASISCKSSQSLLASGNQNNYLAWYLQKPGQSPQLLIYWASTRVSGVPDRFSGSGSGTDFTLKISRVEAEDVGVYYCQQSYSRPLTFGQGTKLEIKR
B2: chimeric clone of AbF46 (Fab) (Fab, V domains shown)
VH: EVKLVESGGGLVQPGGSLRLSCATSGFTFTDYYMSWVRQPPGKALEWLGFIRNKANGYTTEYSASVKGRFTISRDNSQSILYLQMDTLRAEDSATYYCARDNWFAYWGQGTLVTVSA
VL: DILMTQSPSSLTVSAGEKVTMSCKSSQSLLASGNQNNYLAWHQQKPGRSPKMLIIWASTRVSGVPDRFIGSGSGTDFTLTINSVQAEDLAVYYCQQSYSAPLTFGAGTKLELKR
notes: also called chAbF46
B3: clone L1bA (Fab) (Fab, V domains shown)
VH: B1 VH
VL: B1 VL with S32W
notes: L3E with S27->W (S27E->W) in CDR-L1; Fab with human kappa constant region and CH1 of human IgG1; also called LlbA
B4: antibody C28m (mutated C28) (Fab, V domains shown)
VH: B1 VH
VL: B1 VL with S32W, G33S, L52M, Y55I, S58I, S62G, L102Y
notes: C28 with L46M, Y49I and L96Y in VL; Described as an antibody fragment cloned into the same vector as the wild type
B5: clone 1-F3 (Fab) (Fab, V domains shown)
VH: B1 VH
VL: B1 VL with S32W, L39A
notes: Clone from the combinatorial library; Fab with human kappa constant region and CH1 of human IgG1
B6: clone C28 (Fab) (Fab, V domains shown)
VH: B1 VH
VL: B1 VL with S32W, G33S, S58I, S62G
notes: as for B5
B7: clone C30 (Fab) (Fab, V domains shown)
VH: B1 VH
VL: B1 VL with S32W, N34F, S62G
notes: as for B5
B8: mouse antibody AbF46 (antibody, V domains shown)
VH: B2 VH
VL: B2 VL
notes: Mouse monoclonal antibody from a hybridoma; also called monoclonal antibody of hybridoma KCLRF-BP-00220

Columns and labels:
c-Met (NP_000236) [1] = molecular target: T1, c-Met (NP_000236) (human, UniProt P08581 25-932, limits assumed); experiment: estimated from several ELISAs, Fab
T1 construct: also called antigen
T1 sequence (P08581 25-932 limits assumed): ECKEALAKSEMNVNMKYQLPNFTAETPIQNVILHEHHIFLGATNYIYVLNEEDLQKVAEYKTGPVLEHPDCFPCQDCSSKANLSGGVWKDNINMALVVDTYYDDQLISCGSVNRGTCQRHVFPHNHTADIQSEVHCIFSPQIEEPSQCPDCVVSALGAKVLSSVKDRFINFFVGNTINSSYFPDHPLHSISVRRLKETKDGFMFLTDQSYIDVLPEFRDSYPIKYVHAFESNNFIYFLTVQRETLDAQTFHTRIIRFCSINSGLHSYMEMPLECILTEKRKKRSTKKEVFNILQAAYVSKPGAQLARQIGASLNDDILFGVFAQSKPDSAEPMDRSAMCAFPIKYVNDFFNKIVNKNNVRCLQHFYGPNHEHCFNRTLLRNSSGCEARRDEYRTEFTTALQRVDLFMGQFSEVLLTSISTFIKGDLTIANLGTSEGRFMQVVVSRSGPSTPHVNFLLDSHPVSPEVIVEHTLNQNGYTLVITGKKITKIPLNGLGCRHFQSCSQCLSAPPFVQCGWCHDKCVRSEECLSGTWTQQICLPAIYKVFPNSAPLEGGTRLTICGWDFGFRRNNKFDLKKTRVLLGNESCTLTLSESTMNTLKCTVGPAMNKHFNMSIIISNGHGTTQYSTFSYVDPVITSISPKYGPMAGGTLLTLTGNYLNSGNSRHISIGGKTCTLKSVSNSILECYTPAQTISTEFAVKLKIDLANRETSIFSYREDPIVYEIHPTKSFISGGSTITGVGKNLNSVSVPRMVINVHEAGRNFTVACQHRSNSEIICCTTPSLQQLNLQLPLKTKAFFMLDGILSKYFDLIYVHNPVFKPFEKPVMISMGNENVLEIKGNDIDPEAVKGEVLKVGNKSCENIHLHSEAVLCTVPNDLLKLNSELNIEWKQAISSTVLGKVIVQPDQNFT

c-Met (NP_000236) [2] = molecular target: T1, c-Met (NP_000236); experiment: kinetic measurement, method and format not stated
c-Met (NP_000236) [3] = molecular target: T1, c-Met (NP_000236); experiment: ratio of the KD of chAbF46 to the KD of the clone
c-Met (NP_000236) [4] = molecular target: T1, c-Met (NP_000236); experiment: method and reference clone not given
human IgG1 Fc protein = molecular target: T2, human IgG1 Fc protein (human, UniProt P01857-1 100-330 = IgG part, limits assumed); experiment: ELISA, plate-coated human IgG1 Fc protein, hybridoma culture supernatant
T2 construct: domain: Fc; Counter-screen antigen in the hybridoma ELISA; also called human Fc protein; human Fc
Method: The hybridoma cell culture obtained in Example 1(2) was added in an amount of 50 μL to each well of the plates and incubated for 1 hour. The cells remaining unreacted were washed out with a sufficient amount of Tris-buffered saline and Tween 20 (TBST). Goat anti-mouse IgG-horseradish peroxidase (HRP) was added to the plates and incubated for 1 hour at room temperature. The plates were washed with a sufficient amount of TBST. A substrate (OPD) of the peroxidase was added thereto, allowing the substrate and the peroxidase to react. The reaction level was determined by measuring absorbance at 450 nm on an ELISA reader. Hybridoma cell lines which secrete antibodies that specifically and strongly bind to human c-Met protein but not human Fc were selected repeatedly.

Row | Binder | Kd (c-Met (NP_000236) [1]) [nM] | WT KD/Mutant KD (c-Met (NP_000236) [3]) [ratio] | fold enhancement of binding ability (c-Met (NP_000236) [4]) [fold] | other results
1 | B1 | ~30 |  |  | 
2 | B2 | ~4 |  |  | Kd (c-Met (NP_000236) [2]): 2.19 nM; koff (c-Met (NP_000236) [2]): 0.000723 s⁻¹; kon (c-Met (NP_000236) [2]): 329000 M⁻¹ s⁻¹
3 | B3 | ~0.3 | 12.8 |  | fold improvement in binding over the starting clone L3E (c-Met (NP_000236) [1]): ~100 fold
4 | B4 |  |  |  | Kd (c-Met (NP_000236) [2]): < 0.01 nM; koff (c-Met (NP_000236) [2]): < 7.4e-05 s⁻¹; kon (c-Met (NP_000236) [2]): 940000 M⁻¹ s⁻¹
5 | B5 |  | 8.8 | ~3 | 
6 | B6 |  | 19.9 | ~3 | 
7 | B7 |  | 13.7 | ~3 | 
8 | B8 |  |  |  | binding result (human IgG1 Fc protein): no binding
